Here are results for one molecule from article PMC12766925, “Functional assembly of the Qc-SNARE with Sec18 and Sec17 on membranes” (Molecular Biology of the Cell, 2025).

Assay [1] addresses T1, His6-Sec18 (yeast (Saccharomyces Genome Database …, UniProt P18759 1-758)).
T1 construct: Sec18, yeast, YBR080C; construct from Haas and Wickner, 1996; also called Sec18/NSF; source: E. coli XL1 Blue/pQE9-His6-Sec18, purified (Ni-NTA, Superdex 200)
T1 sequence (looked up): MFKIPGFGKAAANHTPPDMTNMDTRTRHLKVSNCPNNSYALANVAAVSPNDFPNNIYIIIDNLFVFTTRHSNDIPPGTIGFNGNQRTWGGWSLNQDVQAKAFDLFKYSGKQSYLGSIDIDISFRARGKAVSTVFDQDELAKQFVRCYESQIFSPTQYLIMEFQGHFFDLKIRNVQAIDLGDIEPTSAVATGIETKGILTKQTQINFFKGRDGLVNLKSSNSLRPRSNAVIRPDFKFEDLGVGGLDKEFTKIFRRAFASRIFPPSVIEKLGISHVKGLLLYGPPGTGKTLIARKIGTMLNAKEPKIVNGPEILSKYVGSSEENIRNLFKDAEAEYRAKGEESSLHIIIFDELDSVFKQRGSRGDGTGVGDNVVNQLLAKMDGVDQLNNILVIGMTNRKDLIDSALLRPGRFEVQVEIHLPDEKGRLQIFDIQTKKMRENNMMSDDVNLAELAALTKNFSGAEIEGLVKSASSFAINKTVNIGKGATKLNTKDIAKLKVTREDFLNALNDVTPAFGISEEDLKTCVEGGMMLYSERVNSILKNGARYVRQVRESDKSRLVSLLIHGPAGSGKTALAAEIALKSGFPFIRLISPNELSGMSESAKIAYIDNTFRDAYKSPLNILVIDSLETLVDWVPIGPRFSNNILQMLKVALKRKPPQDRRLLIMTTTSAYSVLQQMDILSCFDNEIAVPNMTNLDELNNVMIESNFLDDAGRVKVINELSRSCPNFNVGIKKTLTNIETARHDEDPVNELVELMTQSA
In words: liposome floatation (density gradient) with immunoblot; protein-free VML liposomes, 1 mM Mg:ATPyS, where indicated 1 µM Sec17, 250 nM Sec18, 2 µM Qc; Rb150, 27°C 1 h; floated through Histodenz; bound proteins by Western blot. Conditions: both partners purified. (In western blotting, separated proteins are transferred to a membrane and probed.)

In assay [2] the target is T2, complex of RQaQb on proteoliposomes (yeast (Saccharomyces Genome Database …, UniProt Q12255 1-253; Q12241 1-283; Q04338 1-217).
T2 construct: Nyv1 (R SNARE), yeast, YLR093C; as m5; Vam3 (Qa SNARE), yeast, YOR106W; as m6; Vti1 (Qb SNARE), yeast, YMR197C; as m7; also called R, Qa, and Qb; source: purified SNAREs (Mima et al., 2008) reconstituted together into VML proteoliposomes; copies: + +
In words: liposome floatation (density gradient) with immunoblot; VML proteoliposomes with no SNAREs, single or several anchored SNAREs (1:2000 to lipid), 0.5 mM lipid, 1 µM added Sec17, Rb150, 0.04% defatted BSA, 1 mM MgCl2, 27°C 1 h; floated through Histodenz; bound Sec17 by Western blot. Conditions: both partners purified.

T2 sequence (Q12255 whole entry, chain 1 of 3): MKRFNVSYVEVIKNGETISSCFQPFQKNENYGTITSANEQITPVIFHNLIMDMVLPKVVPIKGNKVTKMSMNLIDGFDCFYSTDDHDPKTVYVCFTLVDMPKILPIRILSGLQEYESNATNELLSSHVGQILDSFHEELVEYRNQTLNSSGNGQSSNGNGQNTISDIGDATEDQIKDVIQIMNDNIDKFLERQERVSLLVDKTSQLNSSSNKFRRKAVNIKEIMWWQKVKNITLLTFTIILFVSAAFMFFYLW
T2 sequence (Q12241 whole entry, chain 2 of 3): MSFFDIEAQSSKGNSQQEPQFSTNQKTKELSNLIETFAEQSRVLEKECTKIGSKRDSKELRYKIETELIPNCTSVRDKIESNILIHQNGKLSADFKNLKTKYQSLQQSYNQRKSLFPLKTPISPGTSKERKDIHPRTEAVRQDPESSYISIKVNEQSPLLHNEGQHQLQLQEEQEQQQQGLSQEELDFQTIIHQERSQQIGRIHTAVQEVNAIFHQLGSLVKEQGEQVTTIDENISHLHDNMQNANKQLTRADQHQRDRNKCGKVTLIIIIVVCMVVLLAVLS
T2 sequence (Q04338 whole entry, chain 3 of 3): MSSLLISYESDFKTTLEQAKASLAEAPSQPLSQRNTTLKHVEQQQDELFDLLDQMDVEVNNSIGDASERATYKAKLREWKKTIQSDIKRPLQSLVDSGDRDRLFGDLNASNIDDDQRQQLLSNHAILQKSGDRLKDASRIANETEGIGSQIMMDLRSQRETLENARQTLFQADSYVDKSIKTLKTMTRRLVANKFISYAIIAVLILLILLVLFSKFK

B1: Sec17 (natural protein, UniProt P32602 1-292, looked up)
chain: MSDPVELLKRAEKKGVPSSGFMKLFSGSDSYKFEEAADLCVQAATIYRLRKELNLAGDSFLKAADYQKKAGNEDEAGNTYVEAYKCFKSGGNSVNAVDSLENAIQIFTHRGQFRRGANFKFELGEILENDLHDYAKAIDCYELAGEWYAQDQSVALSNKCFIKCADLKALDGQYIEASDIYSKLIKSSMGNRLSQWSLKDYFLKKGLCQLAATDAVAAARTLQEGQSEDPNFADSRESNFLKSLIDAVNEGDSEQLSEHCKEFDNFMRLDKWKITILNKIKESIQQQEDDLL
notes: Sec17, yeast, YBL050W; Plasmid from Schwartz and Merz, 2009; also called Sec17/SNAP; wild-type Sec17; source: E. coli Rosetta2(DE3), purified (chitin resin, DTT cleavage, dialysed into Rb150)
Regarding B1, the binding result in assay [1] and in assay [2] was “binds” in each case.
